Experimental data published in paper doi:10.1101/2022.12.15.520641.

Molecular target: 6His-σS (His-tagged RpoS) (E. coli) (UniProt P13445)
Test: pull-down

Chain of UniProt P13445 (P13445 whole entry): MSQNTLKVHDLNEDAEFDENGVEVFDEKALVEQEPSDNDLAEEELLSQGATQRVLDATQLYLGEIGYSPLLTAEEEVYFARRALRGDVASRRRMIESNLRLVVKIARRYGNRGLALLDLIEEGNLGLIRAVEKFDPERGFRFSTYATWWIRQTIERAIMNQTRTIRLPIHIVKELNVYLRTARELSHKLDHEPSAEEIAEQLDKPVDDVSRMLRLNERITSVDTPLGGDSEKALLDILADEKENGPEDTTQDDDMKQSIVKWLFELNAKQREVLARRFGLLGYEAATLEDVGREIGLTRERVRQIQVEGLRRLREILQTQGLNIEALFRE

Question: With “RssB bound to Mg2+•beryllofluoride (phosphorylated-like RssB) (from UniProt P0AEV1 1-337) (natural protein)” as the substance, how does the fold increase in pull-down efficiency over RssB without Mg2+•beryllofluoride read?
Answer: Its fold increase in pull-down efficiency over RssB without Mg2+•beryllofluoride is 5 fold.
